The record followed here is US20200330588A1.

Common to all, as to experiment: flow cytometry, HEK293 cells transfected with gH alanine mutant and gL; % of gH-positive cells compared to WT
(In general: Flow cytometry measures light scatter and fluorescence of single cells or particles in a stream.)

In test [1] the target is gH alanine mutant 478-488 (label as in Table 6).
For test [2], the target named is gH alanine mutant 480-481 transfected into HEK293 cells with gL (Human cytomegalovirus (consensus sequence; strain of the construct not stated); Human cytomegalovirus).
Test [3] has as its target gH alanine mutant 482-483 transfected into HEK293 cells with gL (Human cytomegalovirus (consensus sequence; strain of the construct not stated); Human cytomegalovirus).
In test [4] the target is gH alanine mutant 484-485 transfected into HEK293 cells with gL (Human cytomegalovirus (consensus sequence; strain of the construct not stated); Human cytomegalovirus).
Test [5] concerns the target gH alanine mutant 486-487 transfected into HEK293 cells with gL (Human cytomegalovirus (consensus sequence; strain of the construct not stated); Human cytomegalovirus).
Test [6] deals with gH alanine mutant 488-489 transfected into HEK293 cells with gL (Human cytomegalovirus (consensus sequence; strain of the construct not stated); Human cytomegalovirus).
Test [7] addresses gH alanine mutant 490-491 transfected into HEK293 cells with gL (Human cytomegalovirus (consensus sequence; strain of the construct not stated); Human cytomegalovirus).
In test [8] the target is gH mutant 480-486 (consecutive alanine substitutions) transfected into HEK293 cells with gL (Human cytomegalovirus (consensus sequence; strain of the construct not stated); Human cytomegalovirus).
Test [9] has as its target gH mutant 485-492 (consecutive alanine substitutions) transfected into HEK293 cells with gL (Human cytomegalovirus (consensus sequence; strain of the construct not stated); Human cytomegalovirus).

Consider “human anti-gH monoclonal antibody MSL-109”, for which the Avg. binding (% of mass) in test [1] came out at 100%; in test [2] it was 87%; in test [3] it was 92%; in [4] it was 86%; in test [5], 66%; in test [6] it was 111%. The Avg. binding (% of mass) in test [7] is 89%; in test [8] it was 66%; in test [9], 65%.
